Reference: US20260049138A1 (Chugai, published 2026)

Biological target: T1, CD3ε homodimer protein (human, UniProt P07766 23-126, limits assumed)
T1 construct: also called CD3 (CD3ε)
Test: SPR Biacore T200, CD3ε homodimer on chip;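 also: Light-chain single-residue variant antibodies injected over amine-coupled CD3ε homodimer on a CM4 chip at 25 °C, bound amount divided by that of the GLS3000-containing antibody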
Description: Each one-amino acid altered form constructed, expressed, and purified in the paragraph (6-2) was evaluated using Biacore T200 (GE Healthcare Japan Corp.). An appropriate amount of CD3ε homodimer protein was immobilized onto Sensor chip CM4 (GE Healthcare Japan Corp.) by the amine coupling method. Then, the antibody having an appropriate concentration was injected thereto as an analyte and allowed to interact with the CD3ε homodimer protein on the sensor chip. Then, the sensor chip was regenerated by the injection of 10 mmol/L glycine-HCl (pH 1.5). The assay was conducted at 25° C., and HBS-EP+ (GE Healthcare Japan Corp.) was used as a running buffer. […] Each parameter was calculated using Biacore T200 Evaluation Software (GE Healthcare Japan Corp.).
Specifically, when the amount of the GLS3000-containing antibody bound was defined as X and the amount of the L chain one-amino acid altered form bound was defined as Y, a value of Z (ratio of amounts bound)=Y/X was used.

T1 sequence (P07766 23-126 limits assumed): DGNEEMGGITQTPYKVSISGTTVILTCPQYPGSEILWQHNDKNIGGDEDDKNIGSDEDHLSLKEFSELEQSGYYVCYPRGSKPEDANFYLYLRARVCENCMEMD

Binder	ratio of amount bound vs unaltered GLS3000
GLS3000 G89Y one-arm antibody (antibody, human IgG1, kappa, L234A L235A, N297A, name in Kabat numbering) heavy: QVQLVESGGGVVQPGRSLRLSCAASGFTFSNAWMHWVRQAPGKGLEWVAQIKAKSNNYATYYAESVKGRFTISRDDSKNSLYLQMNSLKTEDTAVYYCRYVHYGAYYGVDAWGQGTTVTVSSASTKGPSVFPLAPSSKSTSGGTAALGCLVKDYFPEPVTVSWNSGALTSGVHTFPAVLQSSGLYSLSSVVTVPSSSLGTQTYICNVNHKPSNTKVDKKVEPKSCDKTHTCPPCPAPEAAGGPSVFLFPPKPKDTLMISRTPEVTCVVVDVSHEDPEVKFNWYVDGVEVHNAKTKPREEQYASTYRVVSVLTVLHQDWLNGKEYKCKVSNKALPAPIEKTISKAKGQPREPQVYTLPPSRCELTKNQVSLSCAVKGFYPSDIAVEWESNGQPENNYKTTPPVLDSDGSFFLVSKLTVDKSRWQQGNVFSCSVMHEALHNHYTQKSLSLSPDYKDDDDK EPKSSDKTHTCPPCPAPELLGGPSVFLFPPKPKDTLMISRTPEVTCVVVDVSHEDPEVKFNWYVDGVEVHNAKTKPREEQYNSTYRVVSVLTVLHQDWLNGKEYKCKVSNKALPAPIEKTISKAKGQPREPQVCTLPPSRDELTKNQVSLWCLVKGFYPSDIAVEWESNGQPENNYKTTPPVLDSDGSFFLYSKLTVDKSRWQQGNVFSCSVMHEALHNRYTQKSLSLSP light: DIVMTQSPLSLPVTPGEPASISCRSSQSLVHSNRNTYLHWYQQKPGQAPRLLIYKVSNRFSGVPDRFSGSGSGTDFTLKISRVEAEDVGVYYCYQGTQVPYTFGQGTKLEIKRTVAAPSVFIFPPSDEQLKSGTASVVCLLNNFYPREAKVQWKVDNALQSGNSQESVTEQDSKDSTYSLSSTLTLSKADYEKHKVYACEVTHQGLSSPVTKSFNRGEC	1.19
GLS3000 G91S one-arm antibody (antibody, human IgG1, kappa, L234A L235A, N297A, name in Kabat numbering) heavy: QVQLVESGGGVVQPGRSLRLSCAASGFTFSNAWMHWVRQAPGKGLEWVAQIKAKSNNYATYYAESVKGRFTISRDDSKNSLYLQMNSLKTEDTAVYYCRYVHYGAYYGVDAWGQGTTVTVSSASTKGPSVFPLAPSSKSTSGGTAALGCLVKDYFPEPVTVSWNSGALTSGVHTFPAVLQSSGLYSLSSVVTVPSSSLGTQTYICNVNHKPSNTKVDKKVEPKSCDKTHTCPPCPAPEAAGGPSVFLFPPKPKDTLMISRTPEVTCVVVDVSHEDPEVKFNWYVDGVEVHNAKTKPREEQYASTYRVVSVLTVLHQDWLNGKEYKCKVSNKALPAPIEKTISKAKGQPREPQVYTLPPSRCELTKNQVSLSCAVKGFYPSDIAVEWESNGQPENNYKTTPPVLDSDGSFFLVSKLTVDKSRWQQGNVFSCSVMHEALHNHYTQKSLSLSPDYKDDDDK EPKSSDKTHTCPPCPAPELLGGPSVFLFPPKPKDTLMISRTPEVTCVVVDVSHEDPEVKFNWYVDGVEVHNAKTKPREEQYNSTYRVVSVLTVLHQDWLNGKEYKCKVSNKALPAPIEKTISKAKGQPREPQVCTLPPSRDELTKNQVSLWCLVKGFYPSDIAVEWESNGQPENNYKTTPPVLDSDGSFFLYSKLTVDKSRWQQGNVFSCSVMHEALHNRYTQKSLSLSP light: DIVMTQSPLSLPVTPGEPASISCRSSQSLVHSNRNTYLHWYQQKPGQAPRLLIYKVSNRFSGVPDRFSGSGSGTDFTLKISRVEAEDVGVYYCGQSTQVPYTFGQGTKLEIKRTVAAPSVFIFPPSDEQLKSGTASVVCLLNNFYPREAKVQWKVDNALQSGNSQESVTEQDSKDSTYSLSSTLTLSKADYEKHKVYACEVTHQGLSSPVTKSFNRGEC	0.26
GLS3000 G91A one-arm antibody (antibody, human IgG1, kappa, L234A L235A, N297A, name in Kabat numbering) heavy: QVQLVESGGGVVQPGRSLRLSCAASGFTFSNAWMHWVRQAPGKGLEWVAQIKAKSNNYATYYAESVKGRFTISRDDSKNSLYLQMNSLKTEDTAVYYCRYVHYGAYYGVDAWGQGTTVTVSSASTKGPSVFPLAPSSKSTSGGTAALGCLVKDYFPEPVTVSWNSGALTSGVHTFPAVLQSSGLYSLSSVVTVPSSSLGTQTYICNVNHKPSNTKVDKKVEPKSCDKTHTCPPCPAPEAAGGPSVFLFPPKPKDTLMISRTPEVTCVVVDVSHEDPEVKFNWYVDGVEVHNAKTKPREEQYASTYRVVSVLTVLHQDWLNGKEYKCKVSNKALPAPIEKTISKAKGQPREPQVYTLPPSRCELTKNQVSLSCAVKGFYPSDIAVEWESNGQPENNYKTTPPVLDSDGSFFLVSKLTVDKSRWQQGNVFSCSVMHEALHNHYTQKSLSLSPDYKDDDDK EPKSSDKTHTCPPCPAPELLGGPSVFLFPPKPKDTLMISRTPEVTCVVVDVSHEDPEVKFNWYVDGVEVHNAKTKPREEQYNSTYRVVSVLTVLHQDWLNGKEYKCKVSNKALPAPIEKTISKAKGQPREPQVCTLPPSRDELTKNQVSLWCLVKGFYPSDIAVEWESNGQPENNYKTTPPVLDSDGSFFLYSKLTVDKSRWQQGNVFSCSVMHEALHNRYTQKSLSLSP light: DIVMTQSPLSLPVTPGEPASISCRSSQSLVHSNRNTYLHWYQQKPGQAPRLLIYKVSNRFSGVPDRFSGSGSGTDFTLKISRVEAEDVGVYYCGQATQVPYTFGQGTKLEIKRTVAAPSVFIFPPSDEQLKSGTASVVCLLNNFYPREAKVQWKVDNALQSGNSQESVTEQDSKDSTYSLSSTLTLSKADYEKHKVYACEVTHQGLSSPVTKSFNRGEC	0.27
GLS3000 G91D one-arm antibody (antibody, human IgG1, kappa, L234A L235A, N297A, name in Kabat numbering) heavy: QVQLVESGGGVVQPGRSLRLSCAASGFTFSNAWMHWVRQAPGKGLEWVAQIKAKSNNYATYYAESVKGRFTISRDDSKNSLYLQMNSLKTEDTAVYYCRYVHYGAYYGVDAWGQGTTVTVSSASTKGPSVFPLAPSSKSTSGGTAALGCLVKDYFPEPVTVSWNSGALTSGVHTFPAVLQSSGLYSLSSVVTVPSSSLGTQTYICNVNHKPSNTKVDKKVEPKSCDKTHTCPPCPAPEAAGGPSVFLFPPKPKDTLMISRTPEVTCVVVDVSHEDPEVKFNWYVDGVEVHNAKTKPREEQYASTYRVVSVLTVLHQDWLNGKEYKCKVSNKALPAPIEKTISKAKGQPREPQVYTLPPSRCELTKNQVSLSCAVKGFYPSDIAVEWESNGQPENNYKTTPPVLDSDGSFFLVSKLTVDKSRWQQGNVFSCSVMHEALHNHYTQKSLSLSPDYKDDDDK EPKSSDKTHTCPPCPAPELLGGPSVFLFPPKPKDTLMISRTPEVTCVVVDVSHEDPEVKFNWYVDGVEVHNAKTKPREEQYNSTYRVVSVLTVLHQDWLNGKEYKCKVSNKALPAPIEKTISKAKGQPREPQVCTLPPSRDELTKNQVSLWCLVKGFYPSDIAVEWESNGQPENNYKTTPPVLDSDGSFFLYSKLTVDKSRWQQGNVFSCSVMHEALHNRYTQKSLSLSP light: DIVMTQSPLSLPVTPGEPASISCRSSQSLVHSNRNTYLHWYQQKPGQAPRLLIYKVSNRFSGVPDRFSGSGSGTDFTLKISRVEAEDVGVYYCGQDTQVPYTFGQGTKLEIKRTVAAPSVFIFPPSDEQLKSGTASVVCLLNNFYPREAKVQWKVDNALQSGNSQESVTEQDSKDSTYSLSSTLTLSKADYEKHKVYACEVTHQGLSSPVTKSFNRGEC	0.16
GLS3000 G91E one-arm antibody (antibody, human IgG1, kappa, L234A L235A, N297A, name in Kabat numbering) heavy: QVQLVESGGGVVQPGRSLRLSCAASGFTFSNAWMHWVRQAPGKGLEWVAQIKAKSNNYATYYAESVKGRFTISRDDSKNSLYLQMNSLKTEDTAVYYCRYVHYGAYYGVDAWGQGTTVTVSSASTKGPSVFPLAPSSKSTSGGTAALGCLVKDYFPEPVTVSWNSGALTSGVHTFPAVLQSSGLYSLSSVVTVPSSSLGTQTYICNVNHKPSNTKVDKKVEPKSCDKTHTCPPCPAPEAAGGPSVFLFPPKPKDTLMISRTPEVTCVVVDVSHEDPEVKFNWYVDGVEVHNAKTKPREEQYASTYRVVSVLTVLHQDWLNGKEYKCKVSNKALPAPIEKTISKAKGQPREPQVYTLPPSRCELTKNQVSLSCAVKGFYPSDIAVEWESNGQPENNYKTTPPVLDSDGSFFLVSKLTVDKSRWQQGNVFSCSVMHEALHNHYTQKSLSLSPDYKDDDDK EPKSSDKTHTCPPCPAPELLGGPSVFLFPPKPKDTLMISRTPEVTCVVVDVSHEDPEVKFNWYVDGVEVHNAKTKPREEQYNSTYRVVSVLTVLHQDWLNGKEYKCKVSNKALPAPIEKTISKAKGQPREPQVCTLPPSRDELTKNQVSLWCLVKGFYPSDIAVEWESNGQPENNYKTTPPVLDSDGSFFLYSKLTVDKSRWQQGNVFSCSVMHEALHNRYTQKSLSLSP light: DIVMTQSPLSLPVTPGEPASISCRSSQSLVHSNRNTYLHWYQQKPGQAPRLLIYKVSNRFSGVPDRFSGSGSGTDFTLKISRVEAEDVGVYYCGQETQVPYTFGQGTKLEIKRTVAAPSVFIFPPSDEQLKSGTASVVCLLNNFYPREAKVQWKVDNALQSGNSQESVTEQDSKDSTYSLSSTLTLSKADYEKHKVYACEVTHQGLSSPVTKSFNRGEC	0.16
GLS3000 G91P one-arm antibody (antibody, human IgG1, kappa, L234A L235A, N297A, name in Kabat numbering) heavy: QVQLVESGGGVVQPGRSLRLSCAASGFTFSNAWMHWVRQAPGKGLEWVAQIKAKSNNYATYYAESVKGRFTISRDDSKNSLYLQMNSLKTEDTAVYYCRYVHYGAYYGVDAWGQGTTVTVSSASTKGPSVFPLAPSSKSTSGGTAALGCLVKDYFPEPVTVSWNSGALTSGVHTFPAVLQSSGLYSLSSVVTVPSSSLGTQTYICNVNHKPSNTKVDKKVEPKSCDKTHTCPPCPAPEAAGGPSVFLFPPKPKDTLMISRTPEVTCVVVDVSHEDPEVKFNWYVDGVEVHNAKTKPREEQYASTYRVVSVLTVLHQDWLNGKEYKCKVSNKALPAPIEKTISKAKGQPREPQVYTLPPSRCELTKNQVSLSCAVKGFYPSDIAVEWESNGQPENNYKTTPPVLDSDGSFFLVSKLTVDKSRWQQGNVFSCSVMHEALHNHYTQKSLSLSPDYKDDDDK EPKSSDKTHTCPPCPAPELLGGPSVFLFPPKPKDTLMISRTPEVTCVVVDVSHEDPEVKFNWYVDGVEVHNAKTKPREEQYNSTYRVVSVLTVLHQDWLNGKEYKCKVSNKALPAPIEKTISKAKGQPREPQVCTLPPSRDELTKNQVSLWCLVKGFYPSDIAVEWESNGQPENNYKTTPPVLDSDGSFFLYSKLTVDKSRWQQGNVFSCSVMHEALHNRYTQKSLSLSP light: DIVMTQSPLSLPVTPGEPASISCRSSQSLVHSNRNTYLHWYQQKPGQAPRLLIYKVSNRFSGVPDRFSGSGSGTDFTLKISRVEAEDVGVYYCGQPTQVPYTFGQGTKLEIKRTVAAPSVFIFPPSDEQLKSGTASVVCLLNNFYPREAKVQWKVDNALQSGNSQESVTEQDSKDSTYSLSSTLTLSKADYEKHKVYACEVTHQGLSSPVTKSFNRGEC	0.27
